The values below come from EP4624487A1.

In one test the target is antiserum C2. The test can be described thus: competition ELISA: peptide added to C2 on plate-bound hTNFα. (In an ELISA, binding on a coated surface is turned into a signal by an enzyme label.)
In the case of QTKVNLLSAIKSPCQ [hTNFα peptide H(88-102)], the OD450 with peptide stood at 1.78 and the inhibition rate (%) is 5%.

For ISRIAVSYQTKVNLL [hTNFα peptide H(80-94)], the OD450 with peptide turned out to be 1.7 and the inhibition rate (%) stood at 12%.

For the molecule DKPVAHVVANPQAEG [hTNFα peptide H(10-24)], the OD450 with peptide is 1.74 and the inhibition rate (%) was determined as 8%.

AHVVANPQAEGQLQW [hTNFα peptide H(14-28)]: the OD450 with peptide was 1.65 and the inhibition rate (%) was determined as 7%.

QVLFKGQGCPSTHVL [hTNFα peptide H(61-75)]: the OD450 with peptide turned out to be 1.73 and the inhibition rate (%) came to 10%.

LGGVFQLEKGDRLSA [hTNFα peptide H(120-134)]: the OD450 with peptide came to 1.77 and the inhibition rate (%) was 10%.

With LQWLNRRANALLANG [hTNFα peptide H(26-40)], the OD450 with peptide was determined as 0.313 and the inhibition rate (%) stood at 82%.

For the molecule GDRLSAEINRPDYLD [hTNFα peptide H(129-143)], the OD450 with peptide is 1.78 and the inhibition rate (%) amounted to 12%.

For the molecule SEGLYLIYSQVLFKG [hTNFα peptide H(52-66)], the OD450 with peptide is 1.35 and the inhibition rate (%) stood at 21%.

With LSAIKSPCQRETPEG [hTNFα peptide H(94-108)], the OD450 with peptide was found to be 1.79 and the inhibition rate (%) was found to be 6%.

Turning to HVLLTHTISRIAVSY [hTNFα peptide H(73-87)], the OD450 with peptide is 1.79 and the inhibition rate (%) was -1%.

For ANGVELRDNQLVVPS [hTNFα peptide H(38-52)], the OD450 with peptide turned out to be 1.42 and the inhibition rate (%) amounted to 19%.

A further test concerns the target antiserum B1. Briefly: competition ELISA: peptide added to B1 on plate-bound hTNFα.
As to DRLSAEINRPDYLDF [hTNFα peptide T(130-144)], the OD450 with peptide stood at 1.11 and the inhibition rate (%) was determined as 9%.

As to PCQRETPEGAEAKPW [hTNFα peptide T(100-114)], the OD450 with peptide is 1.06 and the inhibition rate (%) was determined as 14%.

In the case of VVANPQAEGQLQWLN [hTNFα peptide T(16-30)], the OD450 with peptide amounted to 1.06 and the inhibition rate (%) was 9%.

With NGVELRDNQLVVPSE [hTNFα peptide T(39-53)], the OD450 with peptide is 1.01 and the inhibition rate (%) is 23%.

In the case of RRANALLANGVELRD [hTNFα peptide T(31-45)], the OD450 with peptide was found to be 0.106 and the inhibition rate (%) worked out at 91%.

With VNLLSAIKSPCQRET [hTNFα peptide T(91-105)], the OD450 with peptide was 1.17 and the inhibition rate (%) was 3%.

As for NQLVVPSEGLYLIYS [hTNFα peptide T(46-60)], the OD450 with peptide was determined as 1.16 and the inhibition rate (%) amounted to 10%.

Regarding SDKPVAHVVANPQAE [hTNFα peptide T(9-23)], the OD450 with peptide was 1.06 and the inhibition rate (%) stood at 4%.

Regarding PIYLGGVFQLEKGDR [hTNFα peptide H(117-131)], the OD450 with peptide amounted to 1.2 and the inhibition rate (%) amounted to 0%.

As for VRSSSRTPSDKPVAH [hTNFα peptide T(1-15)], the OD450 with peptide stood at 1.1 and the inhibition rate (%) is 13%.

Take LTHTISRIAVSYQTK [hTNFα peptide T(76-90)]: the OD450 with peptide was 1.12 and the inhibition rate (%) turned out to be 13%.

In the case of GQLQWLNRRANALLA [hTNFα peptide T(24-38)], the OD450 with peptide is 0.103 and the inhibition rate (%) came out at 92%.
